Experimental data taken from patent US20120021993A1 (AJOU UNIVERSITY INDUSTRY ACADEMIC COOPERATION FOUNDATION, published 2012).

Columns and labels:
cell surface DR4 = cell surface DR4 (human, UniProt O00220 24-468); assay: cell-based or functional assay
[1] = target: T1, human-derived cell death receptor 4, extracellular domain (amino acid residues 1-216), 6xHis tag (human, UniProt O00220 24-239); assay: ELISA, coated target, A405 [lower panel]
T1 construct: extracellular domain; Expressed in E. coli; biotinylated for sorting and flow cytometry; residues 1-216; also called DR4; TRAIL-receptor 1
Method: (§1) In order to measure the affinity and cross reactivity of the anti-DR4, -DR5 and -TNFα protein scaffold variants based on the Kringle domain structure to the target molecules, an enzyme-linked immunosorbent assay (ELISA) was performed. The target molecules DR4, DR5, TNFα and DcR1, DcR2 were attached to a 96 well EIA/RIA plate (COSTARCorning In., USA) by its reaction at 37° C. for 1 hour, and washed three times with 0.1% PBST (0.1% Tween20, pH 7.4, 137 mM NaCl, 10 mM Phosphate, 2.7 mM KCl, SIGMA-ALDRICH Co., USA) for 10 minutes. The target molecules were attached for 1 hour to a 96 well EIA/RIA plate in 1% PBSB (1% BSA, pH 7.4, 137 mM NaCl, 10 mM Phosphate, 2.7 mM KCl, SIGMA-ALDRICH Co., USA), and then washed three times with 0.1% PBST (0.1% Tween 20, pH 7.4, 137 mM NaCl, 10 mM Phosphate, 2.7 mM KCl, SIGMA-ALDRICH Co., USA) for 10 minutes. Then, the anti-DR4, -DR5 and -TNFα Kringle domain variants were bound, and washed three times with 0.1% PBST for 10 minutes. The anti-DR4, -DR5 and -TNFα Kringle domain variants were primarily bound to mouse-derived anti-c-myc 9e10 mAb (Ig Therapy, Korea), and secondarily bound to alkaline phosphatase (AP)-conjugated anti-mouse mAb (Sigma). Each of the Kringle domain variants was reacted with […] (pNPP, Sigma-aldrich Co., USA) and quantified at an absorbance of 405 nm.

[2] = target: T1, human-derived cell death receptor 4, …; assay: ELISA on coated DR4, KD415 alone, A405
[3] = target: T1, human-derived cell death receptor 4, …; assay: competitive ELISA on coated DR4, biotinylated KD415 with TRAIL (amount not given), A405
DcR2 = target: T2, DcR2 (UniProt Q9UBN6 56-211, limits assumed); assay: ELISA, coated target, single binder concentration not given, A405
T2 sequence (looked up): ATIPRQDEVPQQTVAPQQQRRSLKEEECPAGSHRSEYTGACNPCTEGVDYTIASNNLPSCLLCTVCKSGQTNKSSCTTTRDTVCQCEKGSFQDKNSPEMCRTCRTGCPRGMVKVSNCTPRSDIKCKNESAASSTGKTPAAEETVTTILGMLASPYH
Method: as §1

DcR1 [4] = target: T3, DcR1 (UniProt O14798 26-221, limits assumed); assay: as above
T3 sequence (looked up): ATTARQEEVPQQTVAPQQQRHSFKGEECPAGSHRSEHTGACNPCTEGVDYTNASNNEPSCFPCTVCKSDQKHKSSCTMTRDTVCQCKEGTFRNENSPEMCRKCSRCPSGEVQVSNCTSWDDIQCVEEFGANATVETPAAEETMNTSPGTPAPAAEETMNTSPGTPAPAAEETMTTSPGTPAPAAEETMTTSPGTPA
Method: as §1

[5] = target: T1, human-derived cell death receptor 4, …; assay: ELISA, coated target, A405
Method: as §1

[6] = target: T1, human-derived cell death receptor 4, …; assay: ELISA, coated target, A405; remark: listed apart in the source
[7] = target: T1, human-derived cell death receptor 4, …; assay: yeast display, flow cytometry MFI [panel KD548]
cell surface DR5 = cell surface DR5 (human, UniProt O14763 56-440); assay: cell-based or functional assay
[8] = target: T4, human-derived cell death receptor 5, extracellular domain (amino acid residues 1-130), 6xHis tag (human, UniProt O14763 56-210); assay: ELISA on coated DR5, KD548 alone, A405
T4 construct: extracellular domain; Expressed in E. coli; biotinylated for sorting and flow cytometry; also called DR5; TRAIL-receptor 2

[9] = target: T4, human-derived cell death receptor 5, …; assay: ELISA on coated DR5, KD548 alone, A405; remark: listed apart in the source
[10] = target: T4, human-derived cell death receptor 5, …; assay: ELISA, coated target, A405 [lower panel]
Method: as §1

[11] = target: T4, human-derived cell death receptor 5, …; assay: competitive ELISA on coated DR5, biotinylated KD548 with KD506 (amount not given), A405
[12] = target: T4, human-derived cell death receptor 5, …; assay: ELISA, coated target, A405
Method: as §1

[13] = target: T4, human-derived cell death receptor 5, …; assay: ELISA, coated target, A405; remark: listed apart in the source
Method: as §1

[14] = target: T1, human-derived cell death receptor 4, …; assay: competitive ELISA on coated DR4, biotinylated KD413 with TRAIL (amount not given), A405
[15] = target: T1, human-derived cell death receptor 4, …; assay: ELISA on coated DR4, KD413 alone, A405
[16] = target: T1, human-derived cell death receptor 4, …; assay: competitive ELISA on coated DR4, biotinylated KD413 with KD415 (amount not given), A405
DcR1 [17] = target: T3, DcR1; assay: yeast display, flow cytometry MFI [panel KD413]
[18] = target: T1, human-derived cell death receptor 4, …; assay: ELISA on coated DR4, KD413 alone, A405; remark: listed apart in the source
[19] = target: T1, human-derived cell death receptor 4, …; assay: ELISA, coated target, A405 [upper panel]
Method: as §1

[20] = target: T1, human-derived cell death receptor 4, …; assay: ELISA, coated DR4, A405
[21] = target: T1, human-derived cell death receptor 4, …; assay: ELISA, coated target, A405; remark: listed apart in the source
Method: as §1, with “The anti-DR4, -DR5 and -TNFα Kringle domain variants were primarily bound to mouse-derived anti-c-myc 9e10 mAb (Ig Therapy, Korea), and secondarily bound to alkaline phosphatase (AP)-conjugated anti-mouse mAb (Sigma).” left out
In order to analyze the affinities of the Fc-fused anti-DR4, -DR5 and -TNFα Kringle domains to target molecules, the affinities of the Fc-fused anti-DR4, -DR5 and -TNFα Kringle domains to the target molecules were analyzed using ELISA, as described in Example 8.

[22] = target: T1, human-derived cell death receptor 4, …; assay: sandwich ELISA: DR4 coated, binder titrated, soluble DR5 detected, A405
[23] = target: T4, human-derived cell death receptor 5, …; assay: ELISA, coated DR5, A405
[24] = target: T1, human-derived cell death receptor 4, …; assay: ELISA, coated target, single binder concentration not given, A405
Method: as §1

[25] = target: T5, TNFα, extracellular domain (amino acid residue 1-157), 6xHis tag (human, UniProt P01375 57-233); assay: as above
T5 construct: extracellular domain; Expressed in E. coli; The printed residues 1-157 seem to count on the soluble form, not on the precursor; also called human TNFα; tumor necrosis factor alpha
Method: as §1

T5 sequence (P01375 other isoform, or with tags, fused parts or gaps limits assumed): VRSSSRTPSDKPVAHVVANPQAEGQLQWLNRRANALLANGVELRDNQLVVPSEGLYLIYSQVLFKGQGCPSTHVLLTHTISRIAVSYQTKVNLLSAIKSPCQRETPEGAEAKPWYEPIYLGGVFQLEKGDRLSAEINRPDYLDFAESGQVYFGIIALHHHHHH

B1: KD415 (designed binder)
chain: CTRSKGDEYDGHKHKTNRGLRCQHWPGTKPHFHGDKIKDRHGFRLKKNYCRNPDPQDQPWCFTNRHQHKNELCNQPRC
notes: Soluble monomer from Pichia pastoris; also called anti-DR4 Kringle domain variant KD415; not shown: C-terminal myc tag-6xHis tag of pPICZaA
What does the source list for B1?
EC50 (a concentration of protein causing a 50% cell death), HL60, MTT assay (cell surface DR4): 130 nM; EC50 (a concentration of protein causing a 50% cell death), Jurkat, MTT assay (cell surface DR4): 200 nM; EC50 (read off the curve) [1]: ~300 nM; EC50 (read off the curve) [2]: ~200 nM; EC50 (read off the curve) [3]: ~200 nM; binding result (DcR2): no binding; binding result (DcR1 [4]): no binding; EC50 (read off the curve) [5]: ~300 nM; EC50 (read off the curve) [6]: ~300 nM

B2: KD548 (designed binder)
chain: CHQTQGPKYDGNKDKTHKGHKCQSWTKNRPHHHGNKIENEDENRFQKNYCRNPDNKHEPWCFTHGHRDKHELCHEPRC
notes: Soluble monomer from Pichia pastoris; also called anti-DR5 Kringle domain variant KD548; not shown: C-terminal myc tag-6xHis tag of pPICZaA
Does B2 bind [7]?
Result: binds

And the “EC50 (a concentration of protein causing a 50% cell death), HL60, MTT assay” value (cell surface DR5)?
The value was 260 nM.

And the “EC50 (read off the curve)” value [8]?
Its value is ~900 nM.

And the “EC50 (read off the curve)” value [9]?
The value was ~600 nM.

What about the “EC50 (read off the curve)” value [10] of the same binder?
The value was ~200 nM.

And the “EC50 (read off the curve)” value [11]?
Its value is ~600 nM.

And the “EC50 (read off the curve)” value [12]?
The value was ~600 nM.

And the “EC50 (read off the curve)” value [13]?
The value was ~200 nM.

B3: KD413 (designed binder)
chain: CAKAEGTGYDGHEHKTHKGIRCQNWYKSKPHYHGHQFRDGDKIKNKKNYCRNPDPRAGPWCFTHGNRNRYELCNQPRC
notes: Soluble monomer from Pichia pastoris; also called anti-DR4 Kringle domain variant KD413; not shown: C-terminal myc tag-6xHis tag of pPICZaA
Which results are given for B3?
EC50 (a concentration of protein causing a 50% cell death), Jurkat, MTT assay (cell surface DR4): 90 nM; EC50 (read off the curve) [14]: ~800 nM; EC50 (read off the curve) [15]: ~800 nM; EC50 (read off the curve) [16]: ~400 nM; binding result (DcR1 [17]): no binding; EC50 (read off the curve) [18]: ~200 nM; EC50 (read off the curve) [19]: ~200 nM; EC50 (read off the curve) [20]: ~200 nM; EC50 (read off the curve) [21]: ~100 nM; binding result (DcR2): no binding; EC50 (read off the curve) [6]: ~100 nM

B4: KD413-KD506 hetero-dimer (designed binder, not shown: small tags and cut ends)
chain: CAKAEGTGYDGHEHKTHKGIRCQNWYKSKPHYHGHQFRDGDKIKNKKNYCRNPDPRAGPWCFTHGNRNRYELCNQPRCGGGGSGGGGSGGGGSGGGGSCPEDRGHEYDGDGDKTNRGHGCQYWDQNKPHHHGHRDKDKFKHRIKKNYCRNPDYETGPWCFTNRYRNKNELCHEPRC
What does the source list for B4?
EC50 (read off the curve) [22]: ~200 nM; EC50 (read off the curve) [20]: ~300 nM; EC50 (read off the curve) [23]: ~200 nM

B5: PgnKD2 (other, human, UniProt P00747 184-262, looked up)
single chain: ECMHCSGENYDGKISKTMSGLECQAWDSQSPHAHGYIPSKFPNKNLKKNYCRNPDRELRPWCFTTDPNKRWELCDIPRC
notes: isolated Kringle domain 2; negative control; also called wild-type plasminogen Kringle domain 2
Does B5 bind [24]?
Result: no binding

Does B5 bind [25]?
Result: no binding

Does B5 bind (DcR2)?
Result: no binding

Does B5 bind (DcR1 [4])?
Result: no binding
